Results from patent US20230365670A1 (SCOUT BIO, published 2023).
Changes are numbered by the printed parent chain.

Legend:
mouse (murine) NGF [1] = molecular target: T1, mouse (murine) NGF (mouse (murine), UniProt P01139 122-241, limits assumed); assay: ELISA, plates coated with 0.1 µg/ml muNGF, antibody at 100 to 1.56 ng/ml for the standard curve, goat anti-canine IgG-HRP detection
T1 construct: also called muNGF
Protocol: Pharmacokinetic (PK) studies were conducted in healthy dogs. Four animals were administered purified ca_αD11_HCCDR2(LN) subcutaneously (SC) at 1.0 mg/kg body weight on Day 0 and Day 28 of the study. The ca_αD11_HCCDR2(LN) antibody carries the same CDR sequences as described in Tables 3 and 4, below. Serum concentrations of ca_αD11_HCCDR2(LN) were assessed over 56 days using an NGF-binding ELISA, as detailed below. Pharmacokinetic parameters were determined using PKSolver software (Zhang Y et al. Computer Methods and Programs in Biomedicine. 2010; 99(3):306-314). The emergence of anti-drug antibodies was assessed at Days 28 and 56 using a bridging electrochemiluminescence (ECL) assay, as detailed below.
The concentration of ca_αD11_HCCDR2(LN) in dog serum was determined using an NGF-binding ELISA. Briefly, ELISA plates were coated with 0.1 μg/ml murine NGF (muNGF) and blocked with PBS/0.05% Tween 20/1% BSA. muNGF coated wells were incubated for 1 hour at room temperature with serum diluted in PBS/0.05% Tween 20/1% BSA (100 μl/well). Antibody concentrations ranging from 100 ng/ml to 1.56 ng/ml were used to establish a standard curve. After washing, the plates were incubated with a 1/10,000 dilution of goat anti-canine IgG-HRP in PBS/0.05% Tween 20/1% BSA. […] Development was stopped by the addition of 2M H₂SO₄ and absorbance read at 450 nm and background was subtracted.

mouse (murine) NGF [2] = molecular target: T1, mouse (murine) NGF; assay: ELISA, plates coated with 0.1 µg/ml muNGF, antibody at 100 to 1.56 ng/ml for the binding curve, goat anti-feline IgG-HRP detection
Protocol: Pharmacokinetic (PK) studies were conducted in healthy cats. Four animals were administered each of the felinized anti-NGF antibodies (fe_αD11, fe_αD11+HCCDR1(F/L) and fe_αD11+HCCDR2(LN)) subcutaneously (s.c.) at 2.0 mg/kg on Days 0, 21, 42 and 63. Serum concentrations of the antibodies were assessed over 91 days. The concentration of each antibody in the serum was determined using an NGF-binding ELISA. Briefly, ELISA plates were coated with 0.1 μg/ml mouse (murine) NGF (muNGF) and blocked with PBS/0.05% Tween 20/1% BSA. muNGF-coated wells were then incubated for 1 hour at room temperature with antibody preparations, diluted in PBS/0.05% Tween 20/1% BSA (100 μl/well). Antibody concentrations ranging from 100 ng/ml to 1.56 ng/ml were used to establish a binding curve. After washing, the plates were incubated with a 1/5,000 dilution of goat anti-feline IgG-HRP in PBS/0.05% Tween 20/1% BSA. Plates were washed with PBS/0.05% Tween 20 and developed by the addition of TMB substrate. Development was stopped by the addition of 2M H₂SO₄, absorbance read at 450 nm and background values were subtracted from the absorbance readings. The non-compartmental pharmacokinetic parameters of the three felinized anti-NGF antibodies post-dose 1 and 4 were calculated using PKsolver. software.

T1 sequence (P01139 122-241 limits assumed): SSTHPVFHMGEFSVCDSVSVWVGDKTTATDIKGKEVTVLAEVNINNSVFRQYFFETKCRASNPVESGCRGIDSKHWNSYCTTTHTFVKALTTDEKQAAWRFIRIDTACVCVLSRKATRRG

B1: ca_αD11_HCCDR2(L/V) (caninized anti-NGF antibody) (antibody, V domains shown)
VH: EVTLQESGPGLVKPSQTLSLTCVVSGFSLTNNNVNWVRQRPGRGLEWMGGVWAGGATDYNSAVKSRISITRDTAKNQVSLQLSSMTTEDTAVYYCARDGGYSSSTLYAMDAWGQGTLVTVSS
VL: EIVMTQSPASLSLSQEEKVTITCRASEDIYNALAWYQQKPGQAPKLLIYNTDTLHTGVPSRFSGSGSGTDYSFTISSLEPEDVAVYFCQHYFHYPRTFGAGTKVELK
notes: The antibody was detected with goat anti-canine IgG-HRP; also called ca_αD11_HCCDR2(LN); CaNGF
Does B1 bind (mouse (murine) NGF [1])?
Result: binds

B2: fe_αD11_HCCDR1(F/L) (felinized anti-NGF monoclonal antibody, F to L at position 2 of heavy chain CDR1) (antibody, V domains shown)
VH: QVQLMESGADLVQPSESLRLTCVASGLSLTNNNVNWVRQAPGKGLEWMGGVWAGGATDYNSALKSRLTITRDTSKNTVFLQMHSLQSEDTATYYCARDGGYSSSTLYAMDAWGQGTTVTVSA
VL: DIEMTQSPLSLSATPGETVSISCRASEDIYNALAWYLQKPGRSPRLLIYNTDTLHTGVPDRFSGSGSGTDFTLKISRVQTEDVGVYFCQHYFHYPRTFGQGTKLELKR
notes: also called fe1_αD11_HCCDR1(F/L)
Does B2 bind (mouse (murine) NGF [2])?
Result: binds

B3: fe_αD11_HCCDR2(L/V) (felinized anti-NGF monoclonal antibody, L to V at position 14 of heavy chain CDR2) (antibody, V domains shown)
VH: B2 VH with M5V, A9G, S15G, E16G, L27F, L63V
VL: B2 VL
notes: also called fe_αD11+HCCDR2(LN); fe_αD11_HCCDR2(LN)
Does B3 bind (mouse (murine) NGF [2])?
Result: binds

B4: fe_αD11 (felinized anti-NGF monoclonal antibody with the CDR sequences of rat αD11) (antibody, V domains shown)
VH: B2 VH with M5V, D10E, S15G, V23A, L27F
VL: B2 VL with A13V, T18S
notes: also called fe1_αD11
Does B4 bind (mouse (murine) NGF [2])?
Result: binds
